Measurements as given in the DeepSol protein solubility set.

experiment: soluble on expression in E. coli; label from the status in PepcDB or PDB records

Sequence	soluble on expression in E. coli
MPHNPIRVVVGPANYFSHPGSFNHLHDFFTDEQLSRAVWIYGKRAIAAAQTKLPPAFGLPGAKHILFRGHCSESDVQQLAAESGDDRSVVIGVGGGALLDTAKALARRLGLPFVAVPTIAATCAAWTPLSVWYNDAGQALHYEIFDDANFMVLVEPEIILNAPQQYLLAGIGDTLAKWYEAVVLAPQPETLPLTVRLGINNAQAIRDVLLNSSEQALSDQQNQQLTQSFCDVVDAIIAGGGMVGGLGDRFTRVAAAHAVHNGLTVLPQTEKFLHGTKVAYGILVQSALLGQDDVLAQLTGAYQRFHLPTTLAELEVDINNQAEIDKVIAHTLRPVESIHYLPVTLTPDTLRAAFKKVESFKA	soluble
MLRIIVIGTTGSGKTTFARALAQRLGLPHGEQDAWNHEANWQMAPLGRFRARVDTFTSQPAWVMDGNYGKARDLGWARADTLIWLDFPAWLVYSRLVRRTLWRVLTQQELWNGNRETWRGALLDPEGPLRWFWKTHWRRRQETPALAAEFPHLRLVRLRSPGEARRFLAAVGRGHPTALEHHHHHH	not soluble
EGDKVTGEVQQVEDKQVVVHINGGKFNGIIPISQLSTHHIENPSEVVKVGDEVEAYVTKIEFDEENDTGAYILSKRQ	not soluble
MSLKHLKGNKNTFQKRMYCKKTEIDLSKSGTGLFPGAFYMNRHVKRVILPDYADTVPANLFKGCINLKEVTLPIDPNIGEAAFEGCISLTDIHIPLCIGSIATNAFRGCRENIRFYADSPAVNPKTLKQHIEKELGHSIELYNASGNLVESTEGHHHHHH	soluble
MNVDARVGVAVDGAQSALNTATTVHSSVVMTQIKPQAKLGTFQNLLAGGIAGAISKTCTAPLARLTILFQLQGMQSEGAVLSRPNLRREASRIINEEGYRAFWKGNLVTVVHRIPYTAVNFYAYEKYNLFFNSNPVVQSFIGNTSGNPIVHFVSGGLAGITAATATYPLDLVRTRLAAQRNAIYYQGIEHTFRTICREEGILGLYKGLGATLLGVGPSLAINFAAYESMKLFWHSHRPNDSDLVVSLVSGGLAGAVSSTDDKLFDAHNYVATYPLDLVRRRMQVEGAGGRARVYNTGLFGTFKHIFKSEGFKGIYRGILPEYYKVVPGVGIVFMTYDALRRLLTSLPD	soluble
MNRARDWMRQAERDLEHAQKSLELGHWEWACFAAHQAAEKALKAVYFALGAEAFGHALTHLLAGLHERLNLTPELRRCALVLDRLYIPTRYPDSWEAGAPLDYYGEEEARDALLCAGEILRFGQSVLAGPGETSSGP	soluble
MREKIDALTQNLNRTIVGKTEAIRLVLVALIGGGHALLEDVPGVGKTLLAKSLARSLDGTFQRLQCTPDLLPTDITGTNIWNPKSGEFSFMPGPVFANVVLADEINRATPRTQSALLEVMEEQQVTVDGVSRTVPHPFFVIATQNPVEYQGTFPLPEAQMDRFMLSLSLGYPGVDEELEMLQNLQHGIKVGDLQPCLTLAEVAELRDICSQVKVETVLQQYILELVRATRQDEEITLGVSPRGTVALHKATQALAFLLGRDYAIPDDVKFLAPHVLCHRLIPRGGRSARSIVDRLLRSLPIPLEHHHHHH	soluble
GMSTQENVQIVKDFFAAMGRGDKKGLLAVSAEDIEWIIPGEWPLAGTHRGHAALAALLQKASEMVEISYPEPPEFVAQGERVLVVGFATGRVKSTNRTFEDDWVFAITVRKSKVTSIREYIDTLALARATNFNAT	soluble
GPLGMATEEAIIRIPPYHYIHVLDQNSNVSRVEVGPKTYIRQDNERVLFAPVRMVTVPPRHYCIVANPVSRDAQSSVLFDVTGQVRLRHADQEIRLAQDPFPLYPGELLEKDITPLQVVLPNTALHLKALLDFEDKNGDKVMAGDEWLFEGPGTYIPQKEVEVVEIIQATVIKQNQALRLRARKECFDRDGKERVTGEEWLVRSVGAYLPAVFEEVLDLVDAVILTEKTALHLRARQNFKDLRGVAHRTGEEWLVTVQDTEAHVPDVYEEVLGVVPITTLGPRHYCVILDPMGPDGKNQLGQKRVVKGEKSFFLQPGERLERGIQDVYVLSEQQGLLLKALQPLEEGEGEERVAHQAGDRWLIRGPLEYVPSAKVEVVEERQAIPLD	soluble
EVENNFPCSLYKDEIMKEIERESKRIKLNDNDDEGNKKIIAPRIFISDDKDSLKCPCDPEMVSNSTCRFFVCKCVERRAEVTSNNEVVVKEEYKDEYADIPEHKPTYDKM	soluble
MESCITVIGERDVVLGFRLLGIQHTIIAEGKDLLKKFLEVFQNPQCNIIIVSENVKNMMDKRTLRSVEISSKPLVVFIPLPGVREEETIEEMAKRILGIDIGNVLEHHHHHH	not soluble
MTAELLVNVTPSETRVAYIDGGILQEIHIEREARRGIVGNIYKGRVSRVLPGMQAAFVDIGLDKAAFLHASDIMPHTECVAGEEQKQFTVRDISELVRQGQDLMVQVVKDPLGTKGARLTTDITLPSRYLVFMPGASHVGVSQRIESESERERLKKVVAEYCDEQGGFIIRTAAEGVGEAELASDAAYLKRVWTKVMERKKRPQTRYQLYGELALAQRVLRDFADAELDRIRVDSRLTYEALLEFTSEYIPEMTSKLEHYTGRQPIFDLFDVENEIQRALERKVELKSGGYLIIDQTEAMTTVDINTGAFVGHRNLDDTIFNTNIEATQAIARQLRLRNLGGIIIIDFIDMNNEDHRRRVLHSLEQALSKDRVKTSVNGFSALGLVEMTRKRTRESIEHVLCNECPTCHGRGTVKTVETVCYEIMREIVRVHHAYDSDRFLVYASPAVAEALKGEESHSLAEVEIFVGKQVKVQIEPLYNQEQFDVVMM	soluble
MPEEKQKKSVLEKALKRIEENFGKGSIMILGDETQVQPVEVIPTGSLAIDIATGVGGYPRGRIVEIFGQESSGKTTLALHAIAEAQKMGGVAAFIDAEHALDPVYAKNLGVDLKSLLISQPDHGEQALEIVDELVRSGVVDLIVVDSVAALVPRAEIEGAMGDMQVGLQARLMSQALRKIAGSVNKSKAVVIFTNQIRMKIGVMFGSPETTTGGLALKFYATMRMEVRRGEPIKEGKDVIGNVISVKIVKNKVAPPFKTAQTYIIYGKGIDREYELFNIAVNEGIVDRKGSWYYYTTLKGEEVSLGQGSSNAVQFLKDNPEIAGEIERRIREKYGLLSVEKEEQRKEKKSSGEEAS	soluble
SLDARLWLERIRELPIPDGIRIMNVCGGHERSISMAGLRTALPPAIRLIPGPGCPVCICPEEDIYQAIRLGLEGEAVVATFGDMLRVPVNLGRQAVRTLEQAKAAGADIRPIASPIEARIIAEKAAGKPVVLFAVGFETTMAPVAALMAEGLPDNLYILCSGRLTWPAVKLLLDSDECVLDALVAPGHVATVMGPEEWAFVADDYRLPVAIAGFTPASLLRAIHSTIVQWLEETPRLDNCYPEAVKPGGNPKAREFLDRSFDVAAGNWRGIGPIAASAYALKPGFAAHDARLHFPDYDAGDRRHAGEMPAGCDCARVVLGRIQPDECRIYGKPCSPRSPVGPCMVSDEGACRIWWAAGVRKDSAAA	not soluble
HMAQVFEECVSFINGLPRTINLPNELKLDLYKYYKQSTIGNCNIKEPSAHKYIDRKKYEAWKSVENLNREDAQKRYVDIVSEIFPYWQD	soluble
MGSDKIHHHHHHMIEKVEEKSKIIKTSKEYKRTIIEEKDKEWTKKLNDILSRSSFSNDELDKIKALIPKEILTNENVGEVVTEDGYAKPEYDEVFKSLFTLNNEYDLLVNFINDILKDAPYANRNIKPFTQIKRIIRVETDPTINYIGEKRPRLDILAEDEENNHINIEMQRAFENDYLERAEYYLSRVHGRKLEEGKEYKEIGKTIGIHILNHVKYNHIEDYVNCLRLTMDGHPDIYSSKTALYFIELPKIHKSDYIVNRIMLWGKLISNPSNLDVRVIAKNDSIIKKALDRLKELGSNEEYLLNLKRGAYIMNKSRNFKEEIERETAIRVAKEKDYKIIIMLKKNGFKLDDILNKFNDFDLSEDEIKEVYENN	not soluble
MIYLFTGNMGTGKTSRVVSMILNNEDGLFKMKLEDGTEVDRPLYFCHIDGLDKRQFKAHELTEEQIMSAPLRDVIPEGAVLIVDEAHYTYPVRAAGRPVPPYIQELTELRHHGHTVILMTQHPSQLDIFVRNLVSKHVHLERKAIGMKQYYWYKCVTSLDNPAGVSGVEVASWKPPKEAFKYYKSASQHQ	not soluble
MEALGADVTQGLEKGSLITCADNTGARELKVISVHGYSGTKNRHPKAGLGDKITVSVTKGTPEMRRQVLEAVVVRQRKPIRRPDGTRVKFEDNAAVIVDENEDPRGTELKGPIAREVAQRFGSVASAATMIV	soluble
MGSDKIHHHHHHMNTNQLIEAFRKFLPAEAILHEAEDLRPYECDALSAYRQLPMIVVLPRTEAEIAAILQTCQAERIPVVARGSGTGLSGGALPHAEGVLLSLARLNHILEIDPAAGTARVQPGVRNLAISEAAAYYGMYYAPDPSSQIACSIGGNVAENSGGVHCLKYGLTVHNILRLRVLTIEGDLLEIGADALDSPGFDLLALMTGSEGMLGIVTEITVRLLPKPETVKLVMAVFDDVRKAGEAVASVIQAGIIPAGMEMMDKITIHAVEDFVHAGYDLEGAAILLCESDGMAEEVADEIERIRTILQASGATRISLAQDEAERQRFWAGRKAAFPAAGRVSPDYYCMDGTIPRKHLAHVLEQIEQLSAEYGLRCMNVFHAGDGNLHPLILYDANQPGELQKAEAFGARILEICIEAGGSLTGEHGVGIEKLNQMCLQFNDAERNRFHAIKAAFDPQSLLNPGKAIPELHRCAEFGAMHIHRGAEKFPEIPRF	not soluble
FNHPASAPYIQELATICQQLAQRLQRPVRLLEVGTRTGRAAESLLAQLNAGQIEYVGLEQSQEMLLSARQRLAPWPGARLSLWNADTLAAHAHSADIIWLNNALHRLLPEDPGLLATLQQLAVPGALLYVMEFRQLTPSALLSTLLLTNGQPEALLHNSADWAALFSAAGFNCQH	not soluble
MNAERCEFIAGNSLIEVIPSISDDRPIHLISGDIGPFEAGVPCRIPVWTAILMKRKHNCKVVAPQWMDVDELKKILTSETESQGLAKLPDHFFEISHMLVRDAREDIFEVEAVKSLVQDIYDRRDAKLRSSAIEFLRQNQTCHAQLDNVQLIEASSARATLEACRQMGAVVRNKHESTPL	not soluble
AGFMVPTTNTAGWGRAMAGGSLFPNDPSAAFNNPAAMAFIDKRIAQLTVNYADIDIKYNGDAYDYQGNPMTGGYQDGPGTPELGTNDGGQAGFGAWLPTGFLVVPINDRFAFGLSQVVPMGMRSTWDPNWKGRDFAVDTKIETIGLTGSLSFKVNDNFSLGAGVIIQRTSGFVSQNLDLYASAANSPGMGGIPFPASNSSALMRVKVDNTSPGFFAGAVWKPTDRDTLGFAYHAKIRNKLKGHYNLYDHDGGLTEGAIEGGTPGLAYPGLDLRMGASASARLDIPAYASLDWVHQFNDRLSLGASATWTEWSSFQDLTLKSHGNTIVSIPYTYRNTWTLAVGGDYKVTDQWTMRAGVAYDQTPTHNATRDPRIPDGDRYFASLGAGYRFQSMPELSIDAAYSRQFVKEVPLKTVNQDRLGGGRLDGRATSKGQVFSLSATYDFHHHHHHHH	soluble
MGSDKIHHHHHHMITVSIVTYKTNLGELSKCLQSLISSLVSQIYIVDNSNERYIADFCQQYPNVIYIGSENVGYGAGHNQALRQVLNSGGKYHLILNSDVYFEPSVLEFLAAYMDAHADVAQVQPNVVYPDGEQQYTCRLLPTPANLIFRRFLPKRMVEKMNIRYQLKFDDHKKEMNVPYHQGSFMFFRLECFKKVGLFDERFFMYPEDIDITRRMHKWYRTMFVPSVTIVHAHRAASYKSKKMLKIHMVNMIKYFNKWGWIVDKERSAWNRKLLEELGYKK	not soluble
GSHMASDRKTEFILCVETFNEKAKKGIQMLIEKGFIDSDSNRDIASFLFLNNGRLNKKTIGLLLCDPKKTSLLKEFIDLFDFKGLRVDEAIRILLTKFRLPGESQQIERIVEAFSSKYSADQSNDKVELEDKKAGKNGSESMTEDDIIHVQPDADSVFVLSYSIIMLNTDSHNPQVKDHMTFDDYSNNLRGCYNGKDFPRWYLHKIYTSIKVKEIVMPEEH	soluble
